{"source": "paper PMC12611452", "molecular_target": "PGDH3-mCherry (protease-free, released from PGDH3-mCherry-TEV-mVenus by TEV cleavage) (Arabidopsis thaliana) (UniProt Q9LT69)", "test": "mass photometry; TwoMP instrument, 5 nM protein in PBS, 60 s movies", "data": [{"substance": "PGDH3-mCherry (protease-free, released from PGDH3-mCherry-TEV-mVenus by TEV cleavage) (from UniProt Q9LT69 39-588) (enzyme)", "values": [{"measurement": "stoichiometry N", "value": 2}]}]}
